Data reported in article PMC5462769, “A highly conserved sequence of the viral TAP inhibitor ICP47 is required for freezing of the peptide transport cycle” (Scientific Reports, 2017).
Like-named read-outs stand apart in the source and are kept apart here.

Legend:
TAP (Homo sapiens) [1] = molecular target: TAP (Homo sapiens) (UniProt Q03518); settings: cited from earlier work
TAP (Homo sapiens) [2] = molecular target: TAP (Homo sapiens) (UniProt Q03518); settings: cited from earlier work; remark: listed apart in the source
[3] = molecular target: rT1/hT2 (rat TAP1 with a human C-terminus, with human TAP2-FLAG) (rat | human) (UniProt P36370)
[4] = molecular target: rT1/rT2 (rat TAP1 with a human C-terminus, with rat TAP2-FLAG) (rat | human) (UniProt P36370)
[5] = molecular target: T1, hT1/hT2 (human TAP1 with human TAP2-FLAG) (human, UniProt Q03518 1-748; Q03519 1-686); experiment: cell-based or functional assay
T1 sequence 1: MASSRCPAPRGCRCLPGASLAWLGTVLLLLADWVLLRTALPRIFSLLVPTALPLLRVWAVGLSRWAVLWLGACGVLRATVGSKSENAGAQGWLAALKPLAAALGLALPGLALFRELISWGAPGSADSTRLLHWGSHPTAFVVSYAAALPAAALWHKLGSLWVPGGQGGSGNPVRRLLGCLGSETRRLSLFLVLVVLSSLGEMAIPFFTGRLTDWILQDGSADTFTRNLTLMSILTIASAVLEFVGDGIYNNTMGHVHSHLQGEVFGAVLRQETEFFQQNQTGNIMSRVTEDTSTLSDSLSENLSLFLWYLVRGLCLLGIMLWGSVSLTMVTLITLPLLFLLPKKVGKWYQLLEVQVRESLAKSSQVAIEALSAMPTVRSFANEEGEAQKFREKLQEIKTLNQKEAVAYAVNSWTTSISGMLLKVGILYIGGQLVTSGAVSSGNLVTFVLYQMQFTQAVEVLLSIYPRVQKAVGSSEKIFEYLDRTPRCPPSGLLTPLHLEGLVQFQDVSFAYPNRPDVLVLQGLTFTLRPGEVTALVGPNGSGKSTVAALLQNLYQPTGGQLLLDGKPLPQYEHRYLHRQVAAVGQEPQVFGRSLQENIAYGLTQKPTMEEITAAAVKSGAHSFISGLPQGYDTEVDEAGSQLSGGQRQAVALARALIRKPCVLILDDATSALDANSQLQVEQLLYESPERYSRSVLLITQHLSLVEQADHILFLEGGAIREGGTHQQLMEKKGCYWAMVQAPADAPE
T1 sequence 2: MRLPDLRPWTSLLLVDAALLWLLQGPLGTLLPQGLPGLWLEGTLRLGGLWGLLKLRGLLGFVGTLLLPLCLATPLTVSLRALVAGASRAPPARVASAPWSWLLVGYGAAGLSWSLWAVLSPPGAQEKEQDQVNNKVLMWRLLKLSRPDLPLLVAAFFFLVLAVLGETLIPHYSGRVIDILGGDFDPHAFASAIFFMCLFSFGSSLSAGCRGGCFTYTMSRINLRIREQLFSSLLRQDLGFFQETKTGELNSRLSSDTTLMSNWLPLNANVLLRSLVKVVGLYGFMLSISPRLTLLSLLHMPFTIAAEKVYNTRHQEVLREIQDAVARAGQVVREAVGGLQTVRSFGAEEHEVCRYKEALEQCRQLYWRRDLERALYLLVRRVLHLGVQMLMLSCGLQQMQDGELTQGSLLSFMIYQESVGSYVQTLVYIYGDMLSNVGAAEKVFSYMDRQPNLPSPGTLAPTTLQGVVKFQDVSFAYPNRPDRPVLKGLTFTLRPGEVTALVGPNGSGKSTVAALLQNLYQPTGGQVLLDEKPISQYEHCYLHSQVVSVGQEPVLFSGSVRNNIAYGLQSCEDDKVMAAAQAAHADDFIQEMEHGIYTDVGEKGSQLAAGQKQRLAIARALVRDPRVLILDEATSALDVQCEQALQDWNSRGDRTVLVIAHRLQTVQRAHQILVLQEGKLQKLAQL

[6] = molecular target: T2, hT1/rT2 (human TAP1 with rat TAP2-FLAG) (human | rat, UniProt Q03518 1-748; P36372 1-703); experiment: cell-based or functional assay
T2 sequence 1: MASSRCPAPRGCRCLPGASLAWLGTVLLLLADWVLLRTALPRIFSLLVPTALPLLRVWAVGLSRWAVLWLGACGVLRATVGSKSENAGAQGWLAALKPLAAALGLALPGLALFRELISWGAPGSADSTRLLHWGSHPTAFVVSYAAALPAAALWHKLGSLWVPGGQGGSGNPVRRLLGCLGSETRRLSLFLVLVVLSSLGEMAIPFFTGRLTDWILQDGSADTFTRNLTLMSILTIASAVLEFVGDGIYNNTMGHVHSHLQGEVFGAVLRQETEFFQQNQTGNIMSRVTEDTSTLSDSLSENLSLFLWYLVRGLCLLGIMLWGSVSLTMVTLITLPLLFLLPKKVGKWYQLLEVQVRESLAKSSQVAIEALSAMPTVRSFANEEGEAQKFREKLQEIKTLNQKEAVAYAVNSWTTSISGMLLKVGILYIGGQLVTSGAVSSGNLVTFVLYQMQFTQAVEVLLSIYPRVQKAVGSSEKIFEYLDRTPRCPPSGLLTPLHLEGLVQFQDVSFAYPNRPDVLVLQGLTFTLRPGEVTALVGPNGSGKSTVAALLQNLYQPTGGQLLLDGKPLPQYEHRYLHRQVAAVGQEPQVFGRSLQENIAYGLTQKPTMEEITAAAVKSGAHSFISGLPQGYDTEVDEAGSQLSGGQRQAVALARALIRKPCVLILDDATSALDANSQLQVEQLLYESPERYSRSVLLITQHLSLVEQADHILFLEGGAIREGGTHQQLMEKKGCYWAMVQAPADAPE
T2 sequence 2: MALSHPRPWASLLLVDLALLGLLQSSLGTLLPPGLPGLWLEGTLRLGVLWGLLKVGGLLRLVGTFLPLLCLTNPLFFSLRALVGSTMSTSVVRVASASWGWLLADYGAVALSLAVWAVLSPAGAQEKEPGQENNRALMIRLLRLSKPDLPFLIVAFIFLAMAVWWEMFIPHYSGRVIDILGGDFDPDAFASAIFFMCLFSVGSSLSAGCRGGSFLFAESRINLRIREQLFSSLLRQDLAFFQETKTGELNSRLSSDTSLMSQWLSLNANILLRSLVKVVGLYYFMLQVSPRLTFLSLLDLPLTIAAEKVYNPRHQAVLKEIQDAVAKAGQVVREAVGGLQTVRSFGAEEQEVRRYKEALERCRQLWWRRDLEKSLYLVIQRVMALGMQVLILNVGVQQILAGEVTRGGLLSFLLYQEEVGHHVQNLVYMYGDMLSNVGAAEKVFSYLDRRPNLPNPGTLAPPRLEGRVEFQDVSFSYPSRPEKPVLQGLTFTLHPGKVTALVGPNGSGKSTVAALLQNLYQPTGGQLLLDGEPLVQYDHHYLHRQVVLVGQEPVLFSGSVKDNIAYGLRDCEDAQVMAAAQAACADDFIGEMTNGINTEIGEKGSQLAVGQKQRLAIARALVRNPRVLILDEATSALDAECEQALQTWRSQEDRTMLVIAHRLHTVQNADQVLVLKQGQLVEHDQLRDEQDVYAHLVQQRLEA

ICP47 1-53 (from UniProt P03170)
Kd (TAP (Homo sapiens) [1]): 50 nM

ICP47 1-48 (from UniProt P03170)
Kd (TAP (Homo sapiens) [2]): 126 nM

B1: ICP47-HA (wild-type ICP47 with a C-terminal HA-tag), in CMT64.5 cells (natural protein)
chain: MSWALEMADTFLDTMRVGPRTYADVRDEINKRGREDREAARTAVHDPERPLLRSPGLLPEIAPNASLGVAHRRTGGTVTDSPRNPVTR
MHC class I surface expression (mAb 20-8-4) on CMT64.5 cells, ICP47-positive relative to ICP47-negative cells [3]: 47 % expression
MHC class I surface expression (mAb 20-8-4) on CMT64.5 cells, ICP47-positive relative to ICP47-negative cells [4]: 101 % expression
MHC class I surface expression (mAb 20-8-4) on CMT64.5 cells, ICP47-positive relative to ICP47-negative cells [5]: 17 % expression
MHC class I surface expression (mAb 20-8-4) on CMT64.5 cells, ICP47-positive relative to ICP47-negative cells [6]: 88 % expression

B2: ICP47m-HA (ICP47 with Pro50Leu51Leu52 mutated to AlaAlaAla, C-terminal HA-tag), in CMT64.5 cells (natural protein, herpes simplex virus type-1 (HSV-1), UniProt P03170 1-88, looked up)
chain: MSWALEMADTFLDTMRVGPRTYADVRDEINKRGREDREAARTAVHDPERAAARSPGLLPEIAPNASLGVAHRRTGGTVTDSPRNPVTR
MHC class I surface expression (mAb 20-8-4) on CMT64.5 cells, ICP47-positive relative to ICP47-negative cells [5]: 26 % expression
